Assay results published in patent US20160264649A1.

Columns and labels:
Experiment in all cases: cell-based or functional assay
[1] = biological target: aMLV envelope
[2] = biological target: HIV-1 MGRM-G-011 Env (HIV-1)
[3] = biological target: HIV-1 MGRM-Chronic-B-018 Env on pseudovirus (HIV-1)
[4] = biological target: HIV-1 APV-17 Env (HIV-1)
[5] = biological target: HIV-1 MGRM-Chronic-B-001 Env on pseudovirus (HIV-1)
[6] = biological target: HIV-1 MGRM-C-019 Env on pseudovirus (HIV-1)
[7] = biological target: HIV-1 MGRM-AG-002 Env (HIV-1)
[8] = biological target: HIV-1 APV_13 Env on pseudovirus (HIV-1)
[9] = biological target: HIV-1 MGRM-F1-012 Env (HIV-1)
[10] = biological target: HIV-1 IAVI-C18 Env (HIV-1)
[11] = biological target: HIV-1 MGRM-G-015 Env (HIV-1)
[12] = biological target: HIV-1 MGRM-G-025 Env (HIV-1)
[13] = biological target: HIV-1 MGRM-C-012 Env on pseudovirus (HIV-1)
[14] = biological target: HIV-1 MGRM-AG-001 Env (HIV-1)
[15] = biological target: HIV-1 MGRM-AG-006 Env (HIV-1)
[16] = biological target: HIV-1 MGRM-F1-008 Env (HIV-1)
[17] = biological target: HIV-1 THR0.18 (Acute) Env on pseudovirus (HIV-1)
[18] = biological target: HIV-1 MGRM-F1-010 Env (HIV-1)
[19] = biological target: HIV-1 MGRM-D-012 Env (HIV-1)
[20] = biological target: HIV-1 MGRM-F1-018 Env (HIV-1)
[21] = biological target: HIV-1 92UG046 Env (HIV-1)
[22] = biological target: HIV-1 MGRM-C-008 Env on pseudovirus (HIV-1)
[23] = biological target: HIV-1 MGRM-G-027 Env (HIV-1)
[24] = biological target: HIV-1 MGRM-C-023 Env on pseudovirus (HIV-1)
[25] = biological target: HIV-1 IAVI-C22 Env (HIV-1)
[26] = biological target: HIV-1 MGRM-AE-005 Env (HIV-1)
[27] = biological target: HIV-1 MGRM-G-013 Env (HIV-1)
[28] = biological target: HIV-1 MGRM-C-024 Env on pseudovirus (HIV-1)
[29] = biological target: HIV-1 MGRM-D-004 Env (HIV-1)
[30] = biological target: HIV-1 MGRM-AG-011 Env (HIV-1)
[31] = biological target: HIV-1 97ZA012 Env on pseudovirus (HIV-1)
[32] = biological target: HIV-1 MGRM-Chronic-B-023 Env on pseudovirus (HIV-1)
[33] = biological target: HIV-1 MGRM-D-016 Env (HIV-1)
[34] = biological target: HIV-1 93IN905 Env (HIV-1)
[35] = biological target: HIV-1 94UG114 Env (HIV-1)
[36] = biological target: HIV-1 MGRM-C-020 Env on pseudovirus (HIV-1)
[37] = biological target: HIV-1 MGRM-F1-006 Env (HIV-1)
[38] = biological target: HIV-1 MGRM-AE-007 Env (HIV-1)
[39] = biological target: HIV-1 MGRM-C-014 Env on pseudovirus (HIV-1)
[40] = biological target: HIV-1 MGRM-G-009 Env (HIV-1)
[41] = biological target: HIV-1 LAVI_C22 Env on pseudovirus (HIV-1)
[42] = biological target: HIV-1 MGRM-C-022 Env on pseudovirus (HIV-1)
[43] = biological target: HIV-1 SC422661.8 (Acute) Env on pseudovirus (HIV-1)
[44] = biological target: HIV-1 MGRM-G-014 Env (HIV-1)
[45] = biological target: HIV-1 PVO.4 (Acute) Env on pseudovirus (HIV-1)
[46] = biological target: HIV-1 MGRM-D-026 Env (HIV-1)
[47] = biological target: HIV-1 MGRM-C-001 Env on pseudovirus (HIV-1)
[48] = biological target: HIV-1 MGRM-Chronic-B-012 Env on pseudovirus (HIV-1)
[49] = biological target: HIV-1 98CN006 Env on pseudovirus (HIV-1)
[50] = biological target: HIV-1 MGRM-AE-003 Env (HIV-1)
[51] = biological target: HIV-1 MGRM-D-024 Env (HIV-1)
[52] = biological target: HIV-1 MGRM-C-007 Env on pseudovirus (HIV-1)

1495_C14 (PGC14) (antibody)
12 µg/mL: IC50 [6]
25 µg/mL: IC50 [41]
> 50 µg/mL: neutralization IC50 [1] | IC50 (µg/ml), pseudovirus neutralization [2] | IC50 [3] | neutralization IC50 [4] | IC50 [5] | IC50 (µg/ml), pseudovirus neutralization [7] | IC50 [8] | IC50 (pseudovirus neutralization) [9] | neutralization IC50 [10] | IC50 (µg/ml), pseudovirus neutralization [11] | IC50 (µg/ml), pseudovirus neutralization [12] | IC50 [13] | IC50 (µg/ml), pseudovirus neutralization [14] | IC50 (µg/ml), pseudovirus neutralization [15] | IC50 (pseudovirus neutralization) [16] | IC50 [17] | IC50 (pseudovirus neutralization) [18] | IC50 (µg/ml), pseudovirus neutralization [19] | IC50 (pseudovirus neutralization) [20] | IC50 (µg/ml), pseudovirus neutralization [21] | IC50 [22] | IC50 (µg/ml), pseudovirus neutralization [23] | IC50 [24] | IC50 (µg/ml), pseudovirus neutralization [26] | IC50 (µg/ml), pseudovirus neutralization [27] | IC50 [28] | IC50 (µg/ml), pseudovirus neutralization [29] | IC50 (µg/ml), pseudovirus neutralization [30] | IC50 [31] | IC50 [32] | IC50 (µg/ml), pseudovirus neutralization [33] | neutralization IC50 [34] | IC50 (µg/ml), pseudovirus neutralization [35] | IC50 [36] | IC50 (pseudovirus neutralization) [37] | IC50 (µg/ml), pseudovirus neutralization [38] | IC50 [39] | IC50 (µg/ml), pseudovirus neutralization [40] | IC50 [42] | IC50 [43] | IC50 (µg/ml), pseudovirus neutralization [44] | IC50 [45] | IC50 (µg/ml), pseudovirus neutralization [46] | IC50 [47] | IC50 [48] | IC50 [49] | IC50 (µg/ml), pseudovirus neutralization [50] | IC50 (µg/ml), pseudovirus neutralization [51] | IC50 [52]
9.5 µg/mL: neutralization IC50 [25]

b12 (antibody)
1.51 µg/mL: IC50 [22]
7.64 µg/mL: IC50 [41]
0.13 µg/mL: IC50 (µg/ml), pseudovirus neutralization [19]
0.07 µg/mL: IC50 (µg/ml), pseudovirus neutralization [21]
34.1 µg/mL: neutralization IC50 [34]
0.66 µg/mL: IC50 [3]
0.89 µg/mL: IC50 (µg/ml), pseudovirus neutralization [7]
29.6 µg/mL: neutralization IC90 [25]
> 25 µg/mL: neutralization IC50 [4]
0.75 µg/mL: IC50 [5]
13.9 µg/mL: IC50 [24]
6.11 µg/mL: IC50 [43]
0.63 µg/mL: IC50 (µg/ml), pseudovirus neutralization [26]
11.9 µg/mL: IC50 (µg/ml), pseudovirus neutralization [14]
1.55 µg/mL: IC50 (µg/ml), pseudovirus neutralization [46]
> 50 µg/mL: neutralization IC50 [1] | neutralization IC90 [1] | IC50 (µg/ml), pseudovirus neutralization [2] | neutralization IC90 [4] | IC50 [6] | IC50 [8] | IC50 (pseudovirus neutralization) [9] | neutralization IC50 [10] | neutralization IC90 [10] | IC50 (µg/ml), pseudovirus neutralization [11] | IC50 (µg/ml), pseudovirus neutralization [12] | IC50 [13] | IC50 (µg/ml), pseudovirus neutralization [15] | IC50 (pseudovirus neutralization) [16] | IC50 (pseudovirus neutralization) [18] | IC50 (pseudovirus neutralization) [20] | IC50 (µg/ml), pseudovirus neutralization [23] | IC50 (µg/ml), pseudovirus neutralization [27] | IC50 [28] | IC50 (µg/ml), pseudovirus neutralization [29] | IC50 (µg/ml), pseudovirus neutralization [30] | IC50 [31] | IC50 [32] | neutralization IC90 [34] | IC50 (µg/ml), pseudovirus neutralization [35] | IC50 [36] | IC50 (pseudovirus neutralization) [37] | IC50 (µg/ml), pseudovirus neutralization [38] | IC50 [39] | IC50 (µg/ml), pseudovirus neutralization [40] | IC50 [42] | IC50 (µg/ml), pseudovirus neutralization [44] | IC50 [45] | IC50 [47] | IC50 [48] | IC50 [49] | IC50 (µg/ml), pseudovirus neutralization [50] | IC50 [52]
3.6 µg/mL: neutralization IC50 [25]
5.92 µg/mL: IC50 (µg/ml), pseudovirus neutralization [51]
1.12 µg/mL: IC50 (µg/ml), pseudovirus neutralization [33]
3.62 µg/mL: IC50 [17]
